Assay results published in PMC7980781.

Target: T1, Purified 6xHis tagged recombinant FLCN, Q8NFG4
T1 chain: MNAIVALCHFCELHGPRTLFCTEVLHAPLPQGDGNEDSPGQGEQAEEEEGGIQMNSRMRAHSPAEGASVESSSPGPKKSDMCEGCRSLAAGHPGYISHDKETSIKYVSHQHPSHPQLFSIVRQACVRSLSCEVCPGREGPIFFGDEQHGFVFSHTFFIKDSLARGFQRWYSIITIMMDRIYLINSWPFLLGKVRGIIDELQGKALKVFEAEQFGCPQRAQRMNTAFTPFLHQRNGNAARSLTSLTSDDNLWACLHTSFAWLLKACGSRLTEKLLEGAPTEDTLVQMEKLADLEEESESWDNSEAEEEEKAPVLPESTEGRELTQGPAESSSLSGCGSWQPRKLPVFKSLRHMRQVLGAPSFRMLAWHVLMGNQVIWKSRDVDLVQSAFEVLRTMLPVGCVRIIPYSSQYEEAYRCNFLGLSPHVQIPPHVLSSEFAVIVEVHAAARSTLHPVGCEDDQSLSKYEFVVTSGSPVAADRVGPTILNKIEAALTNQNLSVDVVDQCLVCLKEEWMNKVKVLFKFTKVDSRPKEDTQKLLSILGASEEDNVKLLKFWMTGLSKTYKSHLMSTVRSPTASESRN
Test: native gel or EMSA
Details: remark: other sources report otherwise

stoichiometry N: 2
B1: Purified 6xHis tagged recombinant FLCN, Q8NFG4 1-579 (natural protein)
chain: MNAIVALCHFCELHGPRTLFCTEVLHAPLPQGDGNEDSPGQGEQAEEEEGGIQMNSRMRAHSPAEGASVESSSPGPKKSDMCEGCRSLAAGHPGYISHDKETSIKYVSHQHPSHPQLFSIVRQACVRSLSCEVCPGREGPIFFGDEQHGFVFSHTFFIKDSLARGFQRWYSIITIMMDRIYLINSWPFLLGKVRGIIDELQGKALKVFEAEQFGCPQRAQRMNTAFTPFLHQRNGNAARSLTSLTSDDNLWACLHTSFAWLLKACGSRLTEKLLEGAPTEDTLVQMEKLADLEEESESWDNSEAEEEEKAPVLPESTEGRELTQGPAESSSLSGCGSWQPRKLPVFKSLRHMRQVLGAPSFRMLAWHVLMGNQVIWKSRDVDLVQSAFEVLRTMLPVGCVRIIPYSSQYEEAYRCNFLGLSPHVQIPPHVLSSEFAVIVEVHAAARSTLHPVGCEDDQSLSKYEFVVTSGSPVAADRVGPTILNKIEAALTNQNLSVDVVDQCLVCLKEEWMNKVKVLFKFTKVDSRPKEDTQKLLSILGASEEDNVKLLKFWMTGLSKTYKSHLMSTVRSPTASESRN
